How the values were obtained:
soluble CD4 (sCD4) = soluble CD4 (sCD4) (UniProt P01730); test: SPR
[1] = biological target: BG505 N332 SOSIP gp140 envelope trimer (unmutated BG505 SOSIP) (HIV-1 (clade A, BG505)); test: negative-stain electron microscopy
soluble CD4 = soluble CD4 (UniProt P01730); test: SPR

Substance	koff (soluble CD4 (sCD4)) [s⁻¹]	kon (soluble CD4 (sCD4)) [M⁻¹ s⁻¹]	stoichiometry N [1]	Kd (soluble CD4) [µM]
BG505 SOSIP.664 (unmutated BG505 N332 SOSIP gp140 trimer) (complex)	0.00061	11200		
BG505 N332 SOSIP gp140 envelope trimer (unmutated BG505 SOSIP) (complex)			3	0.0679

— PMC6981184
